Data reported in PMC6340114, “The kinetic characteristics of human and trypanosomatid phosphofructokinases for the reverse reaction” (Biochemical Journal, 2018).

How the values were obtained:
[1] = target: Trypanosoma cruzi phosphofructokinase (T. cruzi (strain CL Brener)); assay: SEC; preparative gel filtration of IMAC eluate on HiPrep Sephacryl S-200 16/60; 20 mM TEA, 5 mM MgCl2, 50 mM KCl, 10% glycerol, pH 7.4; tetrameric fractions collected
[2] = target: the molecule itself; assay: SEC; preparative size exclusion of IMAC eluate on Superose 6 10/300; 50 mM TEA, 500 mM KCl, 5 mM MgCl2, 1 mM TCEP, 1 mM ATP/F6P, 10% glycerol, pH 8; fractions corresponding to the tetramer (340 kDa) pooled
[3] = target: the molecule itself; assay: SEC; preparative size exclusion of IMAC eluate on HiPrep Sephacryl S300 16/600; 50 mM TEA, 500 mM KCl, 5 mM MgCl2, 1 mM TCEP, 1 mM ATP/F6P, 10% glycerol, pH 7.4; fractions corresponding to the tetramer (340 kDa) pooled
[4] = target: the molecule itself; assay: SEC; preparative gel filtration of IMAC eluate on HiPrep Sephacryl S-200 16/60; 20 mM TEA, 5 mM MgCl2, 50 mM KCl, 10% glycerol, pH 7.4; tetrameric fractions collected

For “Trypanosoma cruzi phosphofructokinase (enzyme)”, the stoichiometry N [1] was 4.

B1: human phosphofructokinase isoform PFK-L (enzyme, UniProt P17858 1-780, looked up)
chain: MAAVDLEKLRASGAGKAIGVLTSGGDAQGMNAAVRAVTRMGIYVGAKVFLIYEGYEGLVEGGENIKQANWLSVSNIIQLGGTIIGSARCKAFTTREGRRAAAYNLVQHGITNLCVIGGDGSLTGANIFRSEWGSLLEELVAEGKISETTARTYSHLNIAGLVGSIDNDFCGTDMTIGTDSALHRIMEVIDAITTTAQSHQRTFVLEVMGRHCGYLALVSALASGADWLFIPEAPPEDGWENFMCERLGETRSRGSRLNIIIIAEGAIDRNGKPISSSYVKDLVVQRLGFDTRVTVLGHVQRGGTPSAFDRILSSKMGMEAVMALLEATPDTPACVVTLSGNQSVRLPLMECVQMTKEVQKAMDDKRFDEATQLRGGSFENNWNIYKLLAHQKPPKEKSNFSLAILNVGAPAAGMNAAVRSAVRTGISHGHTVYVVHDGFEGLAKGQVQEVGWHDVAGWLGRGGSMLGTKRTLPKGQLESIVENIRIYGIHALLVVGGFEAYEGVLQLVEARGRYEELCIVMCVIPATISNNVPGTDFSLGSDTAVNAAMESCDRIKQSASGTKRRVFIVETMGGYCGYLATVTGIAVGADAAYVFEDPFNIHDLKVNVEHMTEKMKTDIQRGLVLRNEKCHDYYTTEFLYNLYSSEGKGVFDCRTNVLGHLQQGGAPTPFDRNYGTKLGVKAMLWLSEKLREVYRKGRVFANAPDSACVIGLKKKAVAFSPVTELKKDTDFEHRMPREQWWLSLRLMLKMLAQYRISMAAYVSGELEHVTRRTLSMDKGF
notes: human ATP-dependent phosphofructokinase, liver type (PFK-L1), yeast codon optimised cDNA; also called PFK-L1; source: PFK-deficient Saccharomyces cerevisiae, plasmid pJJH71, purified (nickel IMAC, Superose 6 size exclusion)
With B1 the “stoichiometry N” value [2] was 4.

B2: human phosphofructokinase isoform PFK-M (enzyme, UniProt P08237 1-780, looked up)
chain: MTHEEHHAAKTLGIGKAIAVLTSGGDAQGMNAAVRAVVRVGIFTGARVFFVHEGYQGLVDGGDHIKEATWESVSMMLQLGGTVIGSARCKDFREREGRLRAAYNLVKRGITNLCVIGGDGSLTGADTFRSEWSDLLSDLQKAGKITDEEATKSSYLNIVGLVGSIDNDFCGTDMTIGTDSALHRIMEIVDAITTTAQSHQRTFVLEVMGRHCGYLALVTSLSCGADWVFIPECPPDDDWEEHLCRRLSETRTRGSRLNIIIVAEGAIDKNGKPITSEDIKNLVVKRLGYDTRVTVLGHVQRGGTPSAFDRILGSRMGVEAVMALLEGTPDTPACVVSLSGNQAVRLPLMECVQVTKDVTKAMDEKKFDEALKLRGRSFMNNWEVYKLLAHVRPPVSKSGSHTVAVMNVGAPAAGMNAAVRSTVRIGLIQGNRVLVVHDGFEGLAKGQIEEAGWSYVGGWTGQGGSKLGTKRTLPKKSFEQISANITKFNIQGLVIIGGFEAYTGGLELMEGRKQFDELCIPFVVIPATVSNNVPGSDFSVGADTALNTICTTCDRIKQSAAGTKRRVFIIETMGGYCGYLATMAGLAAGADAAYIFEEPFTIRDLQANVEHLVQKMKTTVKRGLVLRNEKCNENYTTDFIFNLYSEEGKGIFDSRKNVLGHMQQGGSPTPFDRNFATKMGAKAMNWMSGKIKESYRNGRIFANTPDSGCVLGMRKRALVFQPVAELKDQTDFEHRIPKEQWWLKLRPILKILAKYEIDLDTSDHAHLEHITRKRSGEAAV
notes: human ATP-dependent phosphofructokinase, muscle type (PFK-M1), yeast codon optimised cDNA; also called PFK-M1; source: PFK-deficient Saccharomyces cerevisiae, plasmid pJJH71, purified (nickel IMAC, Sephacryl S300 size exclusion)
In the case of B2, the “stoichiometry N” value [3] is reported as 4.

B3: Trypanosoma brucei phosphofructokinase (enzyme, T. b. brucei (strain Lister 427), UniProt O15648 1-487, looked up)
chain: MAVESRSRVTSKLVKAHRAMLNSVTQEDLKVDRLPGADYPNPSKKYSSRTEFRDKTDYIMYNPRPRDEPSSENPVSVSPLLCELAAARSRIHFNPTETTIGIVTCGGICPGLNDVIRSITLTGINVYNVKRVIGFRFGYWGLSKKGSQTAIELHRGRVTNIHHYGGTILGSSRGPQDPKEMVDTLERLGVNILFTVGGDGTQRGALVISQEAKRRGVDISVFGVPKTIDNDLSFSHRTFGFQTAVEKAVQAIRAAYAEAVSANYGVGVVKLMGRDSGFIAAQAAVASAQANICLVPENPISEQEVMSLLERRFCHSRSCVIIVAEGFGQDWGRGSGGYDASGNKKLIDIGVILTEKVKAFLKANKSRYPDSTVKYIDPSYMIRACPPSANDALFCATLATLAVHEAMAGATGCIIAMRHNNYILVPIKVATSVRRVLDLRGQLWRQVREITVDLGSDVRLARKLEIRRELEAINRNRDRLHEELAKL
notes: ATP-dependent phosphofructokinase of Trypanosoma brucei brucei, DNA source strain Lister 427, codon optimised for E. coli; Tag removal was only partially successful; the tagged protein was used for all experiments; also called TbPFK; T. brucei PFK; source: E. coli C41 (DE3), pET28a, purified (cobalt IMAC, Sephacryl S-200 gel filtration); not shown: His6, N-terminal, kept
With B3 the “stoichiometry N” value [4] was 4.

B4: human phosphofructokinase isoform PFK-P (enzyme, UniProt Q01813 1-784, looked up)
chain: MDADDSRAPKGSLRKFLEHLSGAGKAIGVLTSGGDAQGMNAAVRAVVRMGIYVGAKVYFIYEGYQGMVDGGSNIAEADWESVSSILQVGGTIIGSARCQAFRTREGRLKAACNLLQRGITNLCVIGGDGSLTGANLFRKEWSGLLEELARNGQIDKEAVQKYAYLNVVGMVGSIDNDFCGTDMTIGTDSALHRIIEVVDAIMTTAQSHQRTFVLEVMGRHCGYLALVSALACGADWVFLPESPPEEGWEEQMCVKLSENRARKKRLNIIIVAEGAIDTQNKPITSEKIKELVVTQLGYDTRVTILGHVQRGGTPSAFDRILASRMGVEAVIALLEATPDTPACVVSLNGNHAVRLPLMECVQMTQDVQKAMDERRFQDAVRLRGRSFAGNLNTYKRLAIKLPDDQIPKTNCNVAVINVGAPAAGMNAAVRSAVRVGIADGHRMLAIYDGFDGFAKGQIKEIGWTDVGGWTGQGGSILGTKRVLPGKYLEEIATQMRTHSINALLIIGGFEAYLGLLELSAAREKHEEFCVPMVMVPATVSNNVPGSDFSIGADTALNTITDTCDRIKQSASGTKRRVFIIETMGGYCGYLANMGGLAAGADAAYIFEEPFDIRDLQSNVEHLTEKMKTTIQRGLVLRNESCSENYTTDFIYQLYSEEGKGVFDCRKNVLGHMQQGGAPSPFDRNFGTKISARAMEWITAKLKEARGRGKKFTTDDSICVLGISKRNVIFQPVAELKKQTDFEHRIPKEQWWLKLRPLMKILAKYKASYDVSDSGQLEHVQPWSV
notes: human ATP-dependent phosphofructokinase, platelet type (PFK-P1), yeast codon optimised cDNA; also called PFK-P1; source: PFK-deficient Saccharomyces cerevisiae, plasmid pJJH71, purified (nickel IMAC, Superose 6 size exclusion)
B4 was tested, and the “stoichiometry N” value [2] was 4.
